B4: PSMGFR minus 10 amino acids from the C-terminus (peptide)
peptide: GTINVHDVETQFNQYKTEAASRYNLTISDVSVSDV
notes: also called C-10; C-10 PSMGFR

For test [1], the target named is T1, PSMGFR peptide (Primary Sequence of the MUC1 Growth Factor Receptor).
T1 construct: Immobilised on ELISA plates or attached to 1 um or 4.5 um beads; also called MUC1* peptide; MUC1* PSMGFR peptide
T1 peptide: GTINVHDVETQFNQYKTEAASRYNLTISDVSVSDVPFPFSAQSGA
Put plainly: ELISA, PSMGFR on surface (FIG. 12).

The target of test [2] is T2, PSMGFR minus 10 amino acids from the N-terminus.
T2 construct: also called N-10; N-10 PSMGFR
T2 peptide: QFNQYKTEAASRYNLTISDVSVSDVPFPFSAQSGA
Put plainly: selection screens.

The target in test [3] is T1, PSMGFR peptide (Primary Sequence of the …). Put plainly: ELISA, peptide on plate (FIG. 2C). The method, then: (§1) FIGS. 2A-2F show results of ELISA assays. MUC1* peptides PSMGFR, PSMGFR minus 10 amino acids from the N-terminus aka N-10, or PSMGFR minus 10 amino acids from the C-terminus, aka C-10 are immobilized on the plate and the following are assayed for binding: NME7-AB (A), MN-C2 monoclonal antibody (B), MN-E6 monoclonal antibody (C), or dimeric NME1 (D). […] MUC1* peptides PSMGFR minus 10 amino acids from the N-terminus aka N-10, or PSMGFR minus 10 amino acids from the C-terminus, aka C-10, are immobilized on the plate and the following are assayed for binding: MN-C3 (E) and MN-C8 (F).
A general note: An ELISA detects its analyte on a solid surface through an enzyme-linked reagent.

The target is the same in test [4]. Put plainly: ELISA, surface coated with PSMGFR peptide. The procedure: Humanized MN-C2 scFv is then incubated with the surface, washed and detected according to standard methods.
The target in the next test is T3, NME7-AB (human, UniProt Q9Y5B8 92-376).
T3 construct: also called NM23-H7
T3 sequence: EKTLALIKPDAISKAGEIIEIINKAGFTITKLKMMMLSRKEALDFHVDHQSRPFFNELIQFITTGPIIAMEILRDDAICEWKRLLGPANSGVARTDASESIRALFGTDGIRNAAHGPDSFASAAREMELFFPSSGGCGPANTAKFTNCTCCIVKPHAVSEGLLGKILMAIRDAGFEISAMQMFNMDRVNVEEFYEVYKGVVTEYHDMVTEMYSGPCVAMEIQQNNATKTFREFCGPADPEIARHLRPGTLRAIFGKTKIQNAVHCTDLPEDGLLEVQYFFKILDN
Put plainly: ELISA, peptide immobilised on plate (FIG. 2A). The procedure: as §1

Another test deals with T4, dimeric NME1 (human, UniProt P15531 1-152, limits assumed).
T4 construct: Used in dimer form; also called NM23-H1 dimers; dimeric NM23-H1
T4 sequence (P15531 whole entry): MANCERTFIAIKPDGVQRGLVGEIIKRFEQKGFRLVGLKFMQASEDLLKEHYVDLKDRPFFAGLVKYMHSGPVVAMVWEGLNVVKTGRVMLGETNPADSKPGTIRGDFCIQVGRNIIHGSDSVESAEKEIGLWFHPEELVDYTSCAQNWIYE
Put plainly: ELISA, peptide immobilised on plate (FIG. 2D). The method, then:
as §1

In test [5] the target is T1, PSMGFR peptide (Primary Sequence of the …). Put plainly: ELISA, peptide on plate (FIG. 2B). The procedure: as §1
For test [6], the target named is T2, PSMGFR minus 10 amino acids from the …. Put plainly: competitive ELISA, peptide on plate (FIG. 3C). The method, then: FIGS. 3A-3C show results of competitive ELISA assays. The PSMGFR MUC1* peptide is immobilized on the plate and dimeric NM23-H1, aka NME1, is added either alone or after the MN-E6 antibody has been added (A). The same experiment was performed wherein NM23-H7, NME7-AB, is added alone or after MN-E6 has been added (B). […] In a similar experiment (C), PSMGFR or PSMGFR minus 10 amino acids from the N-terminus, aka N-10, is immobilized on the plate. Dimeric NM23-H1 is then added. Anti-MUC1* antibodies MN-E6, MN-C2, MN-C3 or MN-C8 are then tested for their ability to compete off the NM23-H1.

Test [7] addresses T1, PSMGFR peptide (Primary Sequence of the …). Put plainly: ELISA, peptide immobilised on plate (FIG. 22A). The procedure: (§2) FIGS. 22A-22C show graphs of ELISAs wherein the assay plate surface was immobilized with either PSMGFR peptide, PSMGFR minus 10 amino acids from the N-terminus or minus 10 amino acids from the C-terminus. The MN-C3 antibody variants were then assayed for binding to the various MUC1* peptides. A) Purified mouse monoclonal MN-C3 antibody; B) Impure humanized MN-C3 antibody; and C) the humanized MN-C3 scFv-Fc. ELISAs show binding to the PSMGFR peptide as well as to certain deletion peptides.

For test [8], the target named is B4. Put plainly: ELISA, N-10 and C-10 peptides on plate (FIG. 2E). The method, then:
as §1

The target of test [9] is T1, PSMGFR peptide (Primary Sequence of the …). Put plainly: ELISA, peptide immobilised on plate (FIG. 22B). The procedure:
as §2

By EC50 is commonly meant the midpoint of the concentration-response curve.

B1: humanized MN-E6 scFv (scFv, V domains shown, not shown: small tags and cut ends)
VH: EVQLVESGGGLVKPGGSLRLSCAASGFTFSRYGMSWVRQAPGKRLEWVSTISGGGTYIYYPDSVKGRFTISRDNAKNTLYLQMNSLRAEDTAVYYCTRDNYGRNYDYGMDYWGQGTLVTVSS
VL: EIVLTQSPATLSLSPGERATLTCSATSSVSYIHWYQQRPGQSPRLLIYSTSNLASGIPARFSGSGSGSDYTLTISSLEPEDFAVYYCQQRSSSPFTFGSGTKVEIK
notes: also called hu MN-E6 scFv
For the molecule B1, in test [1], the binding result is reported as “binds”.

B2: mouse monoclonal antibody MN-E6 (antibody, V domains shown)
VH: EVKVVESGGDLVKPGGSLKLSCVVSGFTFSRYGMSWVRQTPGKRLEWVATISGGGTYIYYPDSVKGRFTISRDNAKNTLYLQMSSLKSEDTAMYHCTRDNYGRNYDYGMDYWGQGTSVTVSS
VL: QIVLTQSPAIMSASPGEEVTLTCSATSSVSYIHWFQQRPGTSPKLWIYSTSNLASGVPVRFSGSGYGTSYSLTISRMEAEDAATYYCQQRSSSPFTFGSGTKLEIK
notes: also called Min-E6; parent MN-E6 antibody
With B2, the binding result in test [2] and in [3] was “binds” throughout.

B3: humanized MN-C2 scFv (scFv, V domains shown, not shown: small tags and cut ends)
VH: EVQLVESGGGLVKPGGSLRLSCAASGFTFSGYAMSWVRQAPGKGLEWVSTISSGGTYIYYPDSVKGRFTISRDNAKNSLYLQMNSLRAEDTAVYYCARLGGDNYYEYFDVWGKGTTVTVSS
VL: DIVLTQSPASLAVSPGQRATITCRASKSVSTSGYSYMHWYQQKPGQPPKLLIYLASNLESGVPARFSGSGSGTDFTLTINPVEANDTANYYCQHSRELPFTFGGGTKVEIKR
notes: also called huMN-C2 scFv; hMN-C2 scFv
On to B3, for which the EC50 in test [4] was roughly 333 nM.
As to B4, the binding result with NME7-AB and in the test with dimeric NME1 was “no binding” each time.

B5: mouse monoclonal antibody MN-C2 (antibody, V domains shown)
VH: EVQLEESGGGLVKPGGSLKLSCAASGFTFSGYAMSWVRQTPEKRLEWVATISSGGTYIYYPDSVKGRFTISRDNAKNTLYLQMSSLRSEDTAMYYCARLGGDNYYEYFDVWGAGTTVTVSS
VL: DIVITQSTASLGVSLGQRATISCRASKSVSTSGYSYMHWYQQRPGQPPKLLIYLASNLESGVPARFSGSGSGTDFTLNIHPVEEEDAATYYCQHSRELPFTFGGGTKLEIKR
notes: also called Min-C2
In the case of B5, the binding result in test [5] and in test [6] was “binds” in each case.

B6: mouse monoclonal antibody MN-C3 (antibody, V domains shown)
VH: QVQLQQSGPELVRPGVSVKISCKGSGYRFTDYAMNWVKQSHAKSLEWIGVISTFSGNTNFNQKFKGKATMTVDKSSSTAYMELARLTSEDSAMYYCARSDYYGPYFDYWGQGTTLTVSS
VL: DVLMTQTPLSLPVSLGDQASISCRSSQTIVHSNGNTYLEWYLQKPGQSPKLLIYKVSNRFSGVPDRFSGSGSGTDFTLKINRVEAEDLGVYYCFQGSHVPFTFGSGTKLEIK
notes: also called Min-C3
Take B6: the binding result in test [6], in [7] and in [8] was “binds” each time.

B7: humanized MN-C3 antibody (impure preparation) (antibody, V domains shown)
VH: QVQLVQSGAEVKKPGASVKVSCKASGYTFTDYAMNWVRQAPGQGLEWMGVISTFSGNTNFNQKFKGRVTMTTDTSTSTAYMELRSLRSDDTAVYYCARSDYYGPYFDYWGQGTTLTVSS
VL: DIVMTQTPLSLSVTPGQPASISCRSSQTIVHSNGNTYLEWYLQKPGQSPQLLIYKVSNRFSGVPDRFSGSGSGTDFTLKISRVEAEDVGVYYCFQGSHVPFTFGGGTKVEIKR
notes: also called Impure humanized MN-C3 antibody
As for B7, the binding result in test [9] is given as “binds”.

Source of the values: patent publication US20190290692A1 (MINERVA BIOTECHNOLOGIES, published 2019).
